Data: US20210230263A1 (BIOATLA, published 2021)

What was measured:
human IL-22 [1] = biological target: T1, human IL-22 (human, UniProt Q9GZX6 34-179); experiment: affinity ELISA on hIL22, mAb concentration at 50% max signal
T1 construct: also called hIL-22; hIL22
T1 sequence (looked up): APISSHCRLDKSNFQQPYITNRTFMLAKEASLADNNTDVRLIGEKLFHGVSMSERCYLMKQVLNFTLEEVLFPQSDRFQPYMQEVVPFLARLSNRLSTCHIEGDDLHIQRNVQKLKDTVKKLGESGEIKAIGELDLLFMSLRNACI

INF-γ = biological target: T2, INF-γ (Homo sapiens (Human), UniProt P01579 24-161); experiment: ELISA on coated antigen (1 ug/ml), anti-hIgG-HRP, OD450;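 also: specificity check of antibodies applied at 100 ng/ml to wells bearing human or mouse IL-22, related cytokines or an unrelated control antigen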
T2 sequence: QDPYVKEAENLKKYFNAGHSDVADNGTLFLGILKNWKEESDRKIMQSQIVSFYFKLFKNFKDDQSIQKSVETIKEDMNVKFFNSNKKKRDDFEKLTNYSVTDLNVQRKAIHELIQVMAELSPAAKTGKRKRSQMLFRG
Protocol: (§1) Plates were coated with 100 μl antigens at a concentration of 1 μg/ml. The plates were exposed to the antibodies at a concentration of 100 ng/ml. The bound antibodies were detected with anti-hIgG-HRP by the ELISA assay.

human IL19 = biological target: T3, human IL19 (human, UniProt Q9UHD0 25-177); experiment: as above
T3 sequence (looked up): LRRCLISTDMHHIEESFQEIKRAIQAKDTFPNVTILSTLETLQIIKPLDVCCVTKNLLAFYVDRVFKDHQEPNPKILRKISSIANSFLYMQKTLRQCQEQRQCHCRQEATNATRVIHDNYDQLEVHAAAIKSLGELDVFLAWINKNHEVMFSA
Protocol: as §1

human IL24 = biological target: T4, human IL24 (human, UniProt Q13007 52-206, limits assumed); experiment: as above
T4 sequence (looked up): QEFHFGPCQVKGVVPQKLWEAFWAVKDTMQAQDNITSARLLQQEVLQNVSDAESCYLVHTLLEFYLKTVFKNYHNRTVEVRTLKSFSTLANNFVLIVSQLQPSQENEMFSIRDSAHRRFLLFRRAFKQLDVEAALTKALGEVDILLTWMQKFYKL
Protocol: as §1

mouse IL-22 = biological target: T5, mouse IL-22 (mouse, UniProt Q9JJY9 34-179); experiment: as above
T5 construct: also called mIL-22; mIL22
T5 sequence (looked up): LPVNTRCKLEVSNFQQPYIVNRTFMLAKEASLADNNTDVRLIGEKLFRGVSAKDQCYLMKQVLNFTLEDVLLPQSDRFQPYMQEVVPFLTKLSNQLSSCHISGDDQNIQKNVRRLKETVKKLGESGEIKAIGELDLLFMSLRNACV
Protocol: as §1

INF-λ1 = INF-λ1 (Homo sapiens (Human), UniProt Q8IU54 20-200); experiment: as above
Sequence of INF-λ1 (Q8IU54 20-200 limits assumed): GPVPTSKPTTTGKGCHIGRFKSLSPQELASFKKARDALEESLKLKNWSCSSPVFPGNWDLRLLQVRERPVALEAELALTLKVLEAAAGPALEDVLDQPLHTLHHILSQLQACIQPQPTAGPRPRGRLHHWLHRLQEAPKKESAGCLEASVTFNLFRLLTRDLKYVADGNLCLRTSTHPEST
Protocol: as §1

human IL26 = biological target: T6, human IL26 (human, UniProt Q9NPH9 22-171, limits assumed); experiment: as above
T6 sequence (looked up): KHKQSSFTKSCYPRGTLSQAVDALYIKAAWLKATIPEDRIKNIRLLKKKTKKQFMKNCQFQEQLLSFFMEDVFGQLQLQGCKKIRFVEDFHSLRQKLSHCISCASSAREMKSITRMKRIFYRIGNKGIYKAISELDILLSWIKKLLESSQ
Protocol: as §1

human IL20 = biological target: T7, human IL20 (human, UniProt Q9NYY1 25-176); experiment: as above
T7 sequence (looked up): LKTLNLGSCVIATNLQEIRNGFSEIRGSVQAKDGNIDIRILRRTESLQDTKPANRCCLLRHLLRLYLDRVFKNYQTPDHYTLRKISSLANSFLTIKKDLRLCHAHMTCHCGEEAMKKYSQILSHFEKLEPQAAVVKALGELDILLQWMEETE
Protocol: as §1

human IL-22 [2] = biological target: T1, human IL-22; experiment: cell-based or functional assay

B1: hum10 (antibody, V domains shown)
VH: QVQLVQSGAEVKKPGASVKVSCKASGYIFTSYWIHWIRQPPGKGLEWIGRIYPGTGNTYYNEKFKGRVTISADKSISTAYLQWSSLKASDTAMYYCARSYDSSCAYWGQGTLVTVSS
VL: AIQLTQSPSSLSASVGDRVTITCSASSSVSYMHWYLQKPGQSPQLLIYETSKLASGVPSRFSGSGSGTDFTFTISSLEAEDAATYYCQQWSSNPYITFGQGTKVEIKR
notes: Humanized monoclonal antibody derived from murine 3C3; also called parent antibody hum10; humanized 3C3
EC50 (human IL-22 [1]): 2.22 nM
binding result (INF-γ): no binding (tested: 100 ng/ml)
binding result (human IL19): no binding (tested: 100 ng/ml)
binding result (human IL24): no binding (tested: 100 ng/ml)
binding result (mouse IL-22): no binding (tested: 100 ng/ml)
binding result (INF-λ1): no binding (tested: 100 ng/ml)
binding result (human IL26): no binding (tested: 100 ng/ml)
binding result (human IL20): no binding (tested: 100 ng/ml)
STAT3 Phosphorylation; hIL22 % inhibition mAb [0.73 nM] (human IL-22 [2]): 7%
